T1: human GFRAL (analyte in Biacore assays) (human, UniProt Q6UXV0 19-351, limits assumed)
T1 construct: injected in solution over captured antibody; also called hGFRAL
T1 sequence: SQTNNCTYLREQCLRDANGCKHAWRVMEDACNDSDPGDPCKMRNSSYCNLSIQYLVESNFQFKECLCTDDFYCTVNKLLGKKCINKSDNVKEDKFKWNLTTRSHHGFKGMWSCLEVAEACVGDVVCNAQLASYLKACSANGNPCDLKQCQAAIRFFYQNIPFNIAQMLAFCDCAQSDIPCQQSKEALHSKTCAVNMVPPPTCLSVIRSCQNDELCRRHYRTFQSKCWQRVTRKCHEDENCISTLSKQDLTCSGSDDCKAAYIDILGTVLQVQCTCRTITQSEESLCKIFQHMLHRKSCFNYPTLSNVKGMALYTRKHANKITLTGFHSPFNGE

T2: human GFRAL expressed on cells (human, UniProt Q6UXV0 20-394)
T2 sequence: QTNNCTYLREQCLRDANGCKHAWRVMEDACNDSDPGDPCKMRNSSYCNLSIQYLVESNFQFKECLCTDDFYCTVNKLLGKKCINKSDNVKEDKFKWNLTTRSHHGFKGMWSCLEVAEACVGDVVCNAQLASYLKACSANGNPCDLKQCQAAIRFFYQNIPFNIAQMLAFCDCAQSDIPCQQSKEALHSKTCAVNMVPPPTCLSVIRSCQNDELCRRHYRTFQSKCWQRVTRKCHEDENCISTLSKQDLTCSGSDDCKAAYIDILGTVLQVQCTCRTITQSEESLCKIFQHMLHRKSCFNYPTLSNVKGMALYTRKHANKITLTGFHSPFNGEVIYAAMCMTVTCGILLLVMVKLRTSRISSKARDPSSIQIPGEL

T3: mouse GFRAL (analyte in Biacore assays) (mouse, UniProt Q6SJE0 20-349, limits assumed)
T3 construct: injected in solution over captured antibody
T3 sequence: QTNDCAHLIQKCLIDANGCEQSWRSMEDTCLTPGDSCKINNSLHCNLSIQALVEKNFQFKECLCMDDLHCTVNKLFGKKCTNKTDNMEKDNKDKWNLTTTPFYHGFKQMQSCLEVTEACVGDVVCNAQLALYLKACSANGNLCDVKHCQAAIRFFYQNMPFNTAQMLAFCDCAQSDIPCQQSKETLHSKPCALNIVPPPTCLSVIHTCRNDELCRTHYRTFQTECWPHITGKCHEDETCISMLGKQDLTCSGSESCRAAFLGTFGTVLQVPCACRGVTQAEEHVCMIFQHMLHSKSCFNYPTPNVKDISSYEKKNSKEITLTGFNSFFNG

B1: humanized anti-GFRAL antibody HC-375g/LC-375a (antibody, IgG1, V domains shown)
VH: QVQLVQSGAEVKKPGSSVKVSCKASGYTFTDYYINWVRQAPGQGLEWIARIYPGNGNTYHNEKFKGRATLTADKSTSTAYMELSSLRSEDTAVYYCAREGLYYDYDRYFDYWGQGTLVTVSS
VL: DIVMTQSPDSLAVSLGERATINCRASESVDTYGNSFMHWYQQKPGQPPKLLIYLASNLESGVPDRFSGSGSGTDFTLTISSLQAEDVAVYYCHQNNEDPPAFGGGTKVEIK
notes: humanized 5F12
B2: antibody designated 2I23 (antibody, V domains shown)
VH: QAQLQQSGAELVKPGASVKLSCKASGYSFTSYNIDWVRQRPEQGLEWIGWIFPGDGSTKYNEKFKGQATLTTDKSSSTTYIHLSRLTSEDSAVYFCARSGIYYGSHFVYWGQGTLVTVSA
VL: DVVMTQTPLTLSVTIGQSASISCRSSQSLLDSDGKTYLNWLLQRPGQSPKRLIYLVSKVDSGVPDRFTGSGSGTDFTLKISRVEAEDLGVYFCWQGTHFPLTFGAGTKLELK
notes: mouse hybridoma monoclonal
B3: antibody designated 8C10 (antibody, V domains shown)
VH: QVQLQQSGVELARPGAAVKLSCKASGYTFANYGLTWVKQRTGQGLEWIGEIYPGSGHTHYNEDFKGKATLTADRSSSTAYMELRSLTSEDSAVYFCARRIQLLLPVGGFVYWGQGTLVTVSA
VL: DFVLTQSPATLSVTPGDSVSLSCRASQSISNNLHWYQQKSHESPRLLIKYASQSISGIPSRFSGSGSGTDFTLSINSVETEDFGVYFCQQSNSWPHTFGGGTKLEIK
notes: mouse hybridoma monoclonal
B4: antibody designated 6N16 (antibody, V domains shown)
VH: QVQLQQSGSELVKPGTSMKLSCKASGYTFTSYNINWVRLRPEQGLEWIGWIFPGDDSIKYNENFRGKATLTTDKSSSTAYMHLSRLTSDDSAVYFCARSGIFYGNNFAYWGQGTLVTVSA
VL: DVVMTQAPLILSVTIGQPASISCKSSQSLLDGDGETYLSWLLQRPGQSPKRLIYLVSKLDSGVPDRFTGSGSGTDFTLKISRVEAEDLGVYYCCQSTHFPLTFGAGTKLELK
notes: mouse hybridoma monoclonal
B5: antibody designated 1B3 (antibody, V domains shown)
VH: QVHLQQPGAELVKPGASVKLSCKASGFTFTGYNINWVRLRPEQGLEWIGWIFPGDDNAKYNEKFKGKATLTTDKSSNTAYMQLSRLTSEDSAVYFCARTPVLSNYFDYWGQGTTLTVSS
VL: DIQMTQSPSSLSASLGGKVTITCKASQDISKYISWYQHKPGKSPRLLIHYTSTLQPGIPSRFSGSGSGRDYSFSISNLEPEDIATYYCLQYDNLYTFGGGTKLEIK
notes: mouse hybridoma monoclonal
B6: antibody designated 6G9 (antibody, V domains shown)
VH: QVQLHQPGAELVKPGASVKLSCKTSGYTFTSYWMQWVKQRPGQGLEWIGEIDPSDSYTNYNQKFKGKATLTVDTSSTTAYMQLSSLTSEDSAVYYCARPLDRSAYYFDYWGQGTTLTVSS
VL: DIVLTQSPASLAVSLGQRATISCRASESVDFSGNSFMHWYQQKPGQPPKLLIYRASNLDSGIPARFSGVGSRTDFTLTINPVEADDVATYYCQQSNEDPYTFGGGTKLEIE
notes: mouse hybridoma monoclonal
B7: antibody designated 2B11 (antibody, V domains shown)
VH: DVQLQESGPGLVKPSQSLSLTCSVTGYSITSGYYWNWIRQFPGNKLEWMGHIANDGSNYYNPFLKHRVSITRDTSKNQFFLKLNSVTIQDTATYYCARGGSYFDYVDYWGQGTTLTVSS
VL: DIQMTQTTSSLSASLGDRVTINCRASQDISNYLNWYQQKPDGTVKLLIYYTSRLHSGVPSRFSGSGSGTDYSLTITNLEQEDIATYFCQQGNTLPFTFGSGTKLEIK
notes: mouse hybridoma monoclonal
B8: antibody designated P1B6 (antibody, V domains shown)
VH: EVQLQQSGPELVKPGASVKMSCKASGYTFTDYYMNWVKQTHGKSLEWIGDINPNNGGPIYNQKFKGKATLTVDKSSSTAYMELRSLTSEDSAVYYCARSDSAWFTYWGQGTLVTVSA
VL: QIVLTQSPAIMSASPGEKVTMTCSASSSVSYMYWYQQKPGSSPRLLIYDTSNLASGVPVRFSGSGSGTFYSITISRMEAEDAATYYCQQWNSYPPTFGGGTKLEIK
notes: mouse hybridoma monoclonal
B9: antibody designated 1A3 (antibody, V domains shown)
VH: EVQLQQSGPELVKPGASVKISCKASGFTFTDYYMNWVKQSHGKSLEWIGDIIPNNGVTSYNQKFKGKATLTVDKSSSTAYMELRSLTSEDSAVYYCAREWLLRGMDYWGQGTSVTVSS
VL: DIVMTQAAFSNPVTLGTSASISCRSSKSLLHSNGITYLYWYLQKPGQSPQLLIYQMSNLASGVPDRFSSSGSGTDFTLRISRVEAEDVGVYYCAQHLELTWTFGGGTKLEIK
notes: mouse hybridoma monoclonal
B10: antibody designated P8G4 (antibody, V domains shown)
VH: QVQLKQSGPGLVQPSQSLSITCTVSGFSLTSYGVHWVRQSPGKGLDWLGVLWSGGSTDYNAAFISRLSISKDNSKSQVFFKMNSLQADDTAIYYCARNFGDYWGQGTSVTVSS
VL: QIVLTQSPAIMSASPGEKVTMTCSASSRVSYMHWYQQKSGTSPKRWIYDTSKLASGVPARFSGSGSGTSYSLTISSMEAEDAATYYCQQWNNNPPTFGAGTTLELK
notes: mouse hybridoma monoclonal
B11: antibody designated P1H8 (antibody, V domains shown)
VH: EVQLQQSGPELVKPGASVKISCKASGYTFTDYYMNWVKQSHGKSLEWIGDINPNNGGTTYNQKFKGKATLTVDKSSSTAYMELRSLTSEDSAVYYCARQGPWYFDVWGTGTTVTVSS
VL: DVLMTQTPLSLPVSLGDQASISCRSSQTIVHSNGYTYLEWYLQKPGQSPKLLIYKVSNRFSGVPDRFSGSGSGTDFTLKISRVEAEDLGVYYCFQGSHVPWTFGGGTKLEIK
notes: mouse hybridoma monoclonal

This note sets out measurements from US20170306031A1 (NGM BIOPHARMACEUTICALS, published 2017).

For the first assay, the target named is T1, human GFRAL (analyte in Biacore assays). Nature of the assay: Biacore SPR, antibody captured, human GFRAL injected. The procedure:
Exemplary humanized anti-GFRAL antibodies identified in Example 6 were assayed for their binding affinity to human GFRAL. Binding affinity measurements were made in Biacore based assays. For example, equilibrium dissociation constant (KD) measurements were carried out with purified antibodies to evaluate their binding to human GFRAL. Using methods described in Example II, anti-mouse Fc antibody (Sigma-Aldrich, St. Louis, Mo.) was immobilized on all four flow cells of a CM5 chip using amine coupling reagents (GE Healthcare LifeSciences, Piscataway, N.J.). Purified humanized anti-GFRAL antibodies were captured (˜100 RUs) on flow cells 2, 3 and 4 using flow cell 1 as a reference. This was followed by injection of human GFRAL in PBS-P buffer) at a flow rate of 70 μL/min and the binding kinetics were evaluated at 25° C.
On the technique in general: In SPR one partner is held on a chip, and binding of the other changes the refractive index at the surface.
For B1, binding was put at a Kd of 0.028 nM.

The next assay addresses T2, human GFRAL expressed on cells. The experiment in a line: cell-based or functional assay.
On to B2, for which the “IC50, ELK1-luciferase reporter (hGFRAL/hRET)” value (“IC50 … (hGFRAL/hRET)” for short) is 7.18 nM.

In the case of B3, the “IC50 … (hGFRAL/hRET)” value came out at 1.79 nM.

For B4, the “IC50 … (hGFRAL/hRET)” value is 1.62 nM.

Turning to B5, the “IC50 … (hGFRAL/hRET)” value came out at 4.14 nM.

As for B6, the “IC50 … (hGFRAL/hRET)” value was 2.65 nM.

Consider B7, for which the “IC50 … (hGFRAL/hRET)” value stood at 7.9 nM.

Another assay deals with T1, human GFRAL (analyte in Biacore assays). The experiment in a line: Biacore SPR, antibody captured, GFRAL injected. The procedure: (§1) In addition, the binding affinity of antibodies to human and mouse GFRAL were measured. For example, antibodies were rank ordered based on their binding affinity to human GFRAL and mouse GFRAL by low resolution KD measurement by Biacore. Briefly, an anti-mouse Fc antibody (Sigma-Aldrich, St. Louis, Mo.) was immobilized on all four flow cells of a CM5 chip using amine coupling reagents (GE Healthcare LifeSciences, Piscataway, N.J.). Purified antibodies were captured (˜100 RUs) on flow cells 2, 3 and 4 using flow cell 1 as a reference. This was followed by injection of human or mouse GFRAL (25 nM in PBS-P buffer) at a flow rate of 70 μL/m in and monitoring the binding kinetics at 25° C.
(§2) Binding affinity measurements were also made in additional Biacore based assays. For example, equilibrium dissociation constant (KD) measurements were carried out with purified antibodies to evaluate their binding to human GFRAL or mouse GFRAL. As mentioned above, anti-mouse Fc antibody (Sigma-Aldrich, St. Louis, Mo.) was immobilized on all four flow cells of a CM5 chip using amine coupling reagents (GE Healthcare LifeSciences, Piscataway, N.J.). Purified antibodies were captured (˜100 RUs) on flow cells 2, 3 and 4 using flow cell 1 as a reference. This was followed by injection of human or mouse GFRAL in PBS-P buffer) at a flow rate of 70 μL/min and the binding kinetics were evaluated at 25° C.
With B8, the Kd amounted to 0.14 nM and the dissociation rate constant (koff) was 9.72e-05 s⁻¹.

With B2, the equilibrium dissociation constant (Kd) was 0.23 nM and the koff worked out at 6.77e-05 s⁻¹.

The molecule B3 came in with a Kd of under 0.1 nM and an off-rate constant (koff) of 7.2e-05 s⁻¹.

Take B9: the Kd stood at 0.11 nM and the koff stood at 7.57e-05 s⁻¹.

Consider B10, for which the Kd was 0.21 nM and the koff stood at 0.000276 s⁻¹.

As to B4, the Kd was 0.16 nM and the koff was 9.93e-05 s⁻¹.

On to B5, for which the Kd is under 0.1 nM.

In turn, B6 came in with a Kd of under 0.1 nM.

Take B11: binding was characterised by a dissociation constant (Kd) of 0.21 nM and the koff came out at 8.99e-05 s⁻¹.

In the case of B7, the Kd is 0.1 nM and the off-rate (koff) stood at 8.45e-05 s⁻¹.

Another assay addresses T3, mouse GFRAL (analyte in Biacore assays). The experiment in a line: Biacore SPR, antibody captured, GFRAL injected. The procedure: as §1, §2
As for B8, the binding result was “no binding”.

For B2, the binding result is listed as “no binding”.

On to B9, for which the binding result is “no binding”.

Take B10: the binding result was “no binding”.

In the case of B4, the binding result is “no binding”.

In the case of B5, the Kd is 4.4 nM and the koff came out at 0.00107 s⁻¹.

On to B6, for which the binding result is recorded as “no binding”.

As to B11, the binding result is listed as “no binding”.

For B7, the Kd was determined as 3.7 nM and the koff is 0.00144 s⁻¹.

Another assay concerns the target T2, human GFRAL expressed on cells. Nature of the assay: cell-based or functional assay. The source holds these as a separate data set.
On to B3, for which the “IC50, ERK phosphorylation in U2OS hGFRAL/hRET cells” value (from here on “IC50 … in U2OS hGFRAL/hRET cells”) is 0.28 nM.

With B4, the “IC50 … in U2OS hGFRAL/hRET cells” value was determined as 0.27 nM.

Take B5: the “IC50 … in U2OS hGFRAL/hRET cells” value was 0.57 nM.

B6: the “IC50 … in U2OS hGFRAL/hRET cells” value turned out to be 0.17 nM.

Regarding B7, the “IC50 … in U2OS hGFRAL/hRET cells” value came to 0.46 nM.

Broadly, the Kd is a measure of binding affinity in units of concentration. What is called koff is the rate constant with which the complex falls apart. A high value points to a short-lived complex.
